Measurements reported in patent US11300567B2, “Methods and compositions for protein purification and enzyme reaction” (THE REGENTS OF THE UNIVERSITY OF CALIFORNIA, priority 2015, dated 2022).
“Also recorded” adds a separate entry of the source.

Assays:
Assay type in all cases: biochemical
[1] = Michaelis-Menton initial rates experiments, batch vs VFD (Table 1); conditions: Batch (non-VFD)
Protocol: In determining if the observed acceleration is due to a kinetic or thermodynamic effect, the initial rates of each reaction were explored. All five enzymes were subjected typical kinetic experiments using the Michaelis-Menton model. The intrinsic values of the enzymes in a batch type and VFD system could be ascertained (Table 1).
To a 17.7 mm internal diameter VFD tube was added the substrate and enzyme in buffer at the appropriate concentration. The VFD tube was rotated about its axis at a specific rotational speed at an inclination angle of 45-degrees. After a set amount of time had elapsed, the rotation was immediately halted and the quenching reagent added. The exact same reaction was run alongside the VFD in mimicking a non-VFD process. From both the VFD processed and non-VFD processed sample an aliquot of 0.100 mL was removed and added to a 96 well plate and read at 405 nm to detect the production of p-nitrophenoxide. These measurements were carried out in triplicate and allow an accurate comparison to be drawn between VFD and non-VFD processing. For all alterations to this general protocol, assay and further experimental design, see supporting information.

[2] = Alkaline phosphatase VFD acceleration, crowding and centrifuge control (Example 4)
Protocol: The enzyme-substrate solution (alkaline phosphatase and p-nitrophenol phosphate) was subjected to centrifugation in a bench top centrifuge at the indicated rotational speeds for 10 min. A direct comparison was then made between a VFD sample and a centrifuged sample (FIG. 12).
FAsTAP™ thermosensitive alkaline phosphatase (1.0 μL, 0.11 mM) was added to 10 mL of the diethanolamine buffer to generate an enzyme stock solution (11.1 nM). This solution was made fresh every two hours and stored on ice. Each sample was prepared by combining 0.800 mL of the enzyme stock solution and 0.500 mL of alkaline phosphatase liquid substrate system (pNPP, Sigma-Aldrich, 0.435 mM); this solution (1.3 mL) was added to either an Eppendorf or VFD sample tube. The reaction was incubated at 25° C. for 10 min unless otherwise indicated. […] The sample (100 μL) was then transferred to a 96-well micro plate reader, and the absorbance measured at 402 nm (λmax). […]
To explore the ability of VFD-mediated processing to overcome steric crowding reagents, two PEG polymers with average MW of 3350 and 8000 g/mol were added to the alkaline phosphatase-substrate solutions as follows. The appropriate quantities of PEG reagent for the indicated final concentrations were dissolved in diethanolamine buffer (total volume of 10.0 mL). […] The absorbance of the solution was then measured at 402 nm (FIG. 23).

[3] = Immobilized alkaline phosphatase reactor: continuous flow stability; conditions: amine-glutaraldehyde cross linker, 10 h, 1 mL min^−1
Protocol: FIG. 64 depicts amine-glutaraldehyde cross-linker immobilization. Glutaraldehyde solution (90 μL in 3.00 mL PBS) was added to a freshly coated sample tube. The sample tube was then capped, and inserted into a VFD. The sample tube was rotated at 8 krpm for 30 min to create the APTES-glutaraldehyde cross linker. After rotation, the sample tube was then rinsed with PBS (6×5 mL) and inverted to remove the majority of the buffer solution. The enzyme immobilization step was then carried out as described above. Following this, the sample tube was removed from the VFD and washed with PBS (5×5 mL, pH 8.0), and inverted to remove the majority of the buffer solution. The sample tube was then loaded back into the VFD before addition of NaBH3CN (18.8 mg) in sodium acetate buffer (50 mM, pH 5.0, 3.00 mL). The sample tube was then capped and rotated at 8 krpm for 30 min. […]
The p-nitrophenol phosphate substrate solution (0.01 M in 1.0 M diethanolamine) was prepared as follows: […] of diethanolamine was added to 1.0 L of H2O, then the pH of the solution was adjusted to pH 9.8 using 5 M HCl. […] The aliquot was then analyzed via absorption spectroscopy as described above. […]

[4] = Alkaline phosphatase VFD vs batch enhancement, incl. steric crowding (Example 1); conditions: VFD 10 minutes
Protocol: In a typical experiment, fast thermosensitive alkaline phosphatase (1 μL, 1 unit, Thermo-Fisher) was added to 10 mL of diethanolamine buffer (1.0 M diethanolamine buffer with 0.50 mM magnesium chloride at pH 9.8 at 25° C.) in creating an enzyme stock solution. This solution was stored on ice and not stored for more than two hours. p-nitrophenyl phosphate liquid substrate solution (500 μL, Sigma-Aldrich) was added to a 20 mm external diameter VFD tube. To this was added alkaline phosphatase enzyme solution (800 μL) and the tube was inserted into the VFD and immediately spun to the required rotational speed. The VFD tube was rotated about its axis for 10 minutes at a 45-degree tilt angle relative to the horizontal position. At the end of this time 4 M NaOH (150 μL) was added in quenching the reaction. The sample was then added to a 96-well reader plate and the absorbance read at 401 nm (being the λmax for this system with 150 μL NaOH quench). […] From a comparison of the absorption values of the VFD vs. batch an enhancement factor can be determined (FIGS. 3A-3N).
For the steric crowding studies the following method was performed. […] The sample was then added to a 96-well reader plate and the absorbance read at 401 nm (being the λmax for this system with 150 μL NaOH quench). […] From a comparison of the absorption values of the VFD vs. batch an enhancement factor can be determined (FIGS. 3A-3N).

enhancement of VFD-processed enzyme in high concentration of PEG 8000 ([2]; PEG 8000 (6.00 mg/ml, 0.75 M)): ≈ 9 fold | enhancement compared to a non-VFD sample, crowded solution ([4]; 6 mg/mL PEG8000 dopant, 45-degree tilt): ~12 × | enhancement in activity compared to a non-VFD sample ([4]; 45-degree tilt angle): ~6 ×
Substance: alkaline phosphatase
Km [1]: 484 µM | Vmax (Mol/sec) Batch [1]: 2.271e-08 mol/s | kcat (sec^−1) Batch [1]: 1 s⁻¹ | effect of centrifugation on enzymatic activity (control) ([2]; centrifuged at 14 krpm (17530 g), no VFD): no increase in enzymatic activity | stability of immobilized enzyme in continuous flow [3]: stable levels of substrate conversion for 10 h; also recorded: good stability over 10 h of processing
